Experiments:
[1] = target: recombinant Phl p 7 mutant (hypoallergenic variant, four calcium-coordinating residues replaced by alanine) (timothy grass); test: SEC; size exclusion chromatography (Yarra SEC-X150) coupled to a UV detector (230 nm) and ICPMS; 10 mM Tris, 50 mM ammonium sulfate, pH 7.5; 30 °C; apparent molecular masses
[2] = target: the molecule itself; test: as above

“recombinant Phl p 7 mutant (hypoallergenic variant, four calcium-coordinating residues replaced by alanine) (natural protein)” showed a stoichiometry N [1] of 2.

B1: recombinant wildtype Phl p 7 (timothy grass pollen polcalcin) (natural protein)
chain: ADDMERIFKRFDTNGDGKISLSELTDALRTLGSTSADEVQRMMAEIDTDGDGFIDFNEFISFCNANPGLMKDVAKVF
notes: codon-optimized synthetic gene in pET17b (NdeI/EcoRI); also called rPhl p 7 wildtype; Phl p 7 wildtype; source: E. coli BL21(DE3), purified (anion-exchange chromatography, HiTrap Q FF)
With B1 the “stoichiometry N” value [2] was 2.

Source: paper PMC6534608, “Rational design of a hypoallergenic Phl p 7 variant for immunotherapy of polcalcin-sensitized patients” (Scientific Reports, 2019)
